Laboratory results published in patent publication US20050064507A1, “Determining kinase specificity” (priority 2003, published 2005).

Assays:
Assay type in all cases: biochemical
PKC-delta = biological target: T1, PKC-delta (Homo sapiens, UniProt Q05655); assay: In vitro kinase assay: peptide phosphorylation by PKC-delta
T1 construct: purchased Calbiochem
Procedure, shortened: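 Biotin-Lys-dansyl-Lys-Pro-Pro-Gly-linked proteomic peptides (12–21-residue core) phosphorylated by PKC-delta in HEPES/Triton/CaCl2/MgCl2 buffer with phosphatidyl serine and PMA, 100 μM [γ-32P]ATP, 30° C., ~10 min, stoichiometry ≤5%; streptavidin-plate capture. Signal normalized as % of best peptide substrate.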

PKC-alpha = biological target: T2, PKC-alpha (Homo sapiens, UniProt P17252); assay: In vitro kinase assay: peptide phosphorylation by PKC-alpha
T2 construct: purchased Calbiochem
Procedure: (§1) Catalytically active preparations of the kinases of interest were either purchased or prepared. Purchased and tested active kinase preparations including the following: PKC-alpha, PKC-delta, PKC-epsilon, PKC-zeta, PKC-mu, PKA, PKG from Calbiochem, ROK alpha/ROCK-II, active from Upstate Biotechnology, and AKT1 from Panvera.
(§2) The conditions of the kinase assay and the amount of active kinase used varied with the kinase and with the accuracy needed. For a typical experiment, 5-20 ng of kinase was used per well and each peptide pool was assayed in duplicate wells. Note that the absolute amount of kinase used was not usually a critical parameter, because the desired information related to specificity of the kinase not its absolute activity, and robustness of the assay depends on comparisons of the same amount of kinase on different peptides. The combination of kinase concentration and assay duration was modified to assure that the stoichiometry of peptide phosphorylation never exceeded 5%. The choice of kinase buffer depended on the kinase being analyzed. For studies of PKC, 100 mM HEPES, 0.05% Triton-X100, 1 mM CaCl2, 20 mM MgCl2, 0.2 mg/ml phosphatidyl serine (Avanti Polar Lipids), PMA 100 ng/ml was typically used. The lipid stock was prepared by transferring 3 mg phosphatidyl serine into iced mixture of 450 μl water plus 50 μl of 10% Triton-X100, sonicating 10 times on ice for 1 sec each.
(§3) The kinase reaction mixture was assembled by sequential addition to a tube held on ice of: 5 μl peptide (100 μM for final concentration of 10 μM), 15 μl of kinase (typically 5 ng/well, in appropriate kinase buffer), 30 μl of ATP (1 uCi/well of ^32P-gamma ATP in a stock of 167 μM cold ATP in the kinase buffer; for final concentration for 100 μM ATP). The mixture was rapidly warmed to desired reaction temperature (30° C. for PKC) and incubated for the desired duration (usually 10 minutes). The kinase assay was terminated by transfer to 4° C. water batch, and rapid addition of an equal volume (50 μl) of stop solution [0.1M ATP+0.1M EDTA in water, pH 8].
(§4) The peptides were then captured from the reaction mixture by transfer to a Reacti-Bind Streptavidin High Binding Capacity Coated Plates (HBC) (Pierce Biotechnology) as follows. The HBC plates were pre-rinsed three times with PBS/Tween PBS/Tween20 0.05% (PBS/Tween). Part of all of the reaction mixture was then transferred wells of a HBC plate pre-filled with 90 μl of phosphate-buffered saline (PBS); typically each aliquots of each phosphorylation reaction were transferred to duplicate HBC plates to assure accuracy by additional replication
(§5) For kinase assays done at the standard peptide concentration of 10 μM, the peptide concentration in the reaction mixture becomes 5 μM after addition of the stop solution; consequently 10 μl of the reaction (50 pMoles of peptide) was transferred to the HBC plate. More generally, the amount of reaction mixture transferred was estimated to be about 50 pMoles of peptide. […] The HBC plates were incubated for 0.5 to 1.5 hr at room temperature for complete binding of biotinylated peptides to plate-bound streptavidin. The HBC plates were then washed extensively with PBS/Tween. Five washes were done routinely and additional wash steps were added if the wash solution removed from the plate had measurable radioactivity as detected using a Geiger counter. This step is essential to obtaining a good the signal to noise ratio because the fraction of radioactivity incorporated in the peptides was a tiny fraction of the total in the reaction mixture. The wells were air-dried. A volume of 40-50 μl of microScint-20 (Packard Instruments) was added to each well. The plates were covered with stick-on film sheet. Radioactive emissions were measured in a TopCount NXT Microplate Scintillation and Luminescence Counter (Packard Instruments). Typically samples were counted for 5 minutes (or more) to improve the signal to noise ratio when counts were low. […]

PKC-epsilon = biological target: T3, PKC-epsilon (Homo sapiens, UniProt Q02156); assay: In vitro kinase assay: peptide phosphorylation by PKC-epsilon; settings: peptide concentration 1 uM
T3 construct: purchased Calbiochem
T3 sequence (Q02156 1-737): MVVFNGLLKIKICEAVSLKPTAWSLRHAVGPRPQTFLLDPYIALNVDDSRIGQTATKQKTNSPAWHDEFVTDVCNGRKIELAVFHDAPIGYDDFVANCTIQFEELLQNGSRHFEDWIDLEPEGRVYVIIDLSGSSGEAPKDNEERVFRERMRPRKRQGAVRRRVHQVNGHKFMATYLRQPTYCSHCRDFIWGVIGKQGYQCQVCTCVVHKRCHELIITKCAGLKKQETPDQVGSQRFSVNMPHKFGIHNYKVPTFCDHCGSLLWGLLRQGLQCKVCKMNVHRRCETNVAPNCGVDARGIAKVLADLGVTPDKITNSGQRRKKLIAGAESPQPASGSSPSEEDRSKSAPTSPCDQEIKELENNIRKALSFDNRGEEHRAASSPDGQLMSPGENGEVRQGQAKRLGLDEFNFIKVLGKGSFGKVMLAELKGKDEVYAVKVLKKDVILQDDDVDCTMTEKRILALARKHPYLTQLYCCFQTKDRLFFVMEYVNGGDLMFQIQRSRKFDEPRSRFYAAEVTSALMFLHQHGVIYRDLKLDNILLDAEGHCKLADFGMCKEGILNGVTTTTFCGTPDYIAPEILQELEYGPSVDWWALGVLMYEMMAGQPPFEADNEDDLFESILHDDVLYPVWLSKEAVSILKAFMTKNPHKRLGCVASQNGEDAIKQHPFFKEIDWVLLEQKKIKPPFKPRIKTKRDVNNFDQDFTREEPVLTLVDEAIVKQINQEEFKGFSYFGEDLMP
Procedure: as §1, §2, §3, §4, §5

T1 sequence (Q05655 whole entry): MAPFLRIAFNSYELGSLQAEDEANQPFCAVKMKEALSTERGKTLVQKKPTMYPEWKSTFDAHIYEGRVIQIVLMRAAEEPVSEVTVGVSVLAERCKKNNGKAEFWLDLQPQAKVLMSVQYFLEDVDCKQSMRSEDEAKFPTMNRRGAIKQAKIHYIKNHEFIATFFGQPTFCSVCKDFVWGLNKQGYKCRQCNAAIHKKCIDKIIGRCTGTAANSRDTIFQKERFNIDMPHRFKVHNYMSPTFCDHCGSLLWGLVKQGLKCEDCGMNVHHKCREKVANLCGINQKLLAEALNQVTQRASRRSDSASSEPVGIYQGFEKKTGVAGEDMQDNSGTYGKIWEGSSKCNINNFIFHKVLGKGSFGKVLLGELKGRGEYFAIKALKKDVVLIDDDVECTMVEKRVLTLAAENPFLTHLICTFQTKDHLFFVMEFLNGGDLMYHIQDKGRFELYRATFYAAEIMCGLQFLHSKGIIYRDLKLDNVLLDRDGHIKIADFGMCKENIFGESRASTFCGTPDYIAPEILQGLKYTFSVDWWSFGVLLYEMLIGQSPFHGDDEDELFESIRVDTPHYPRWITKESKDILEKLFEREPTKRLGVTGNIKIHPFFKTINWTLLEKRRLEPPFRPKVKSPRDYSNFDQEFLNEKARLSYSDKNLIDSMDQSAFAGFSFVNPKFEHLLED

Row | Substance | phosphorylation by PKC-delta (PKC-delta; peptide concentration 1 uM) | phosphorylation by PKC-delta (PKC-delta; peptide concentration 10 uM) | phosphorylation by PKC alpha (PKC-alpha; peptide concentration 1 uM) | phosphorylation by PKC alpha (PKC-alpha; peptide concentration 10 uM) | phosphorylation by PKC epsilon (PKC-epsilon)
1 | 126 (KAIKAIEGGQKFARKSTRRS) [compound 126] | 47 | 43 | 36 | 34 | 69
2 | 127 (SQVQKQRSAGSFKRNSIKKI) [compound 127] | 52 | 33 | 40 | 39 | 32
3 | 128 (QQVDRERPHVRRRRGTFKRS) [compound 128] | 46 | 57 | 25 | 33 | 32
4 | 129 (VQRHRSMRKTFARYLSFRRD) [compound 129] | 32 | 14 | 58 | 37 | 65
5 | 130 (EYLERRASRRRAV) [compound 130] | 46 | 20 | 38 | 38 | 46
6 | 131 (WKGKRRSKARKKRK) [compound 131] | 38 | 29 | 49 | 22 | 43
7 | 132 (GFLNEPLSSKSQRRKSLKLK) [compound 132] | 41 | 47 | 24 | 30 | 47
8 | 133 (LEKRGMLGKRPRRKSSRRKK) [compound 133] | 46 | 52 | 17 | 16 | 31
9 | 134 (RSRSRSRSKSKDKRKSRKRS) [compound 134] | 44 | 16 | 54 | 39 | 32
10 | 135 (KKKFRTPSFLKKSKK) [compound 135] | 40 | 25 | 56 | 19 | 27
11 | 136 (RARRDSLKKIEIW) [compound 136] | 41 | 23 | 26 | 28 | 33
12 | 137 (PSKSPSKKKKKFRTPSFLKK) [compound 137] | 38 | 16 | 34 | 38 | 32
13 | 138 (EYLERRASRRRAV) [compound 138] | 49 | 28 | 17 | 20 | 27
14 | 139 (RPTPGDGEKRSRIKKSKKRK) [compound 139] | 31 | 24 | 39 | 44 | 24
15 | 140 (TELEGGFSRQRKRKLSFRRR) [compound 140] | 44 | 49 | 12 | 15 | 27
16 | 141 (VTDSQKRREILSRRPSYRKI) [compound 141] | 43 | 21 | 24 | 25 | 31
17 | 142 (ERHVAQKKSRLRRRASQLKI) [compound 142] | 30 | 36 | 16 | 21 | 28
18 | 143 (VRYTPYTISPYNRKGSFRKQ) [compound 143] | 33 | 32 | 38 | 19 | 21
19 | 144 (LSSMFGTLPRKSRKGSVRKQ) [compound 144] | 35 | 28 | 31 | 20 | 24
20 | 145 (ISDFGLAKKLAVGRHSFSRR) [compound 145] | 34 | 23 | 21 | 30 | 26
